{"source": "the nanobody polyreactivity screen of Harvey et al. (2022)", "data": [{"experiment": "yeast display, Sf9 membrane polyspecificity reagent, FACS + sequencing; frameworks hold sequencing errors", "summary_of_the_method": "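After 36–48 hours of galactose induction, yeast (Saccharomyces cerevisiae BJ5465) displaying a synthetic nanobody library were stained at 4 °C for 1 hour with 10% biotinylated, detergent-solubilized Sf9 membrane reagent. Streptavidin microbeads enriched the stained cells before FACS sorting into low and high (top ~1%) gates on anti-HA and streptavidin fluorescence. Each clone's polyreactivity label reflects its gate of origin.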", "values": [{"sequence": "QVQLVESGGGLVQAGGSLRLSCAASGRTFALYAMGWYRQAPGKERELVAAISSGGSTYYADSVKGRFTISRDNAKNTVYLQMNSLKPEDTAVYYCNARPKWGNRQSVRGYYILSPGGRMNYWGQGTQVTVSS", "polyreactivity (PSR sort gate)": "high polyreactivity"}, {"sequence": "QVQLVESGGGLVQAGGSLRLSCAASGRIFSYYARGWYRQAPGKERELVATINSGGSTNYADSVKGRFTISRDNAKNTVYLLMNSLKPEDTAVYYCAASPVWWYDYWGQGTQVTVSS", "polyreactivity (PSR sort gate)": "low polyreactivity"}, {"sequence": "QDQLVESGGGLVQAGGSLRLSCAAYGSTFPVYTMGWYRQAPRKEREFVAAITGSGGRTYYADSVKGRFTISRDNAKNTVFLQMNSLKPEDTAVYYCNAYPKGRYAAAFPGMDYWGQGTQVTVSS", "polyreactivity (PSR sort gate)": "high polyreactivity"}, {"sequence": "QVQLVESAAGLVQAVGSHRLSCAASRLTFGFYAMGSDRQARGKESELVAAIDFSDGSTYYADSVKGRFTISRDNAKKTVYLQMNSLKPEDTAVYYCAADDPGLGYWSLTWYDYWGQGTQVTVSS", "polyreactivity (PSR sort gate)": "high polyreactivity"}, {"sequence": "QVQLVESGGGLVQAGGSLRLSCAASGLIFRPYAMGWYRQAPGKERELVAAITSGGSTDYADSVKGRFTISRDNAKNTVYLQMNSLKPQDTAVYYCNADTIPDGEDRYVYWGQGTQVTVSS", "polyreactivity (PSR sort gate)": "low polyreactivity"}, {"sequence": "QVQLVESGGGLVQAGGSLRLSCAASGSTISYYAMGWYRQAPGKERELVAAITWNGGSTYYADSVKGRFTISRDNAKNTVYLQMNSLKPEDTAVYYCAKDSYYYDYDYWGQGTQVTVSS", "polyreactivity (PSR sort gate)": "low polyreactivity"}, {"sequence": "QVQLVESGGGLVQAGGSLRLSCAASGSSFRYTMGWYRQAHGKQRELVATITYSDGSTYYADSVKGRFTISRDNAKNTVYFQMNSLKPEDTAVYYCARTTPTGRQYRRYDYWGQGSQVTVSS", "polyreactivity (PSR sort gate)": "low polyreactivity"}, {"sequence": "QVQLVESGAGLVQAGGSLRLSCAASGRTFSAYAMGWYRQAPGKERELVAAITLSVGSTYYADSVKGRFTISRDNAKTTVYLQMNSLKPEDTAVYYCNKYKKGEGGITIVRFDYWGQGTQVTVSS", "polyreactivity (PSR sort gate)": "low polyreactivity"}, {"sequence": "QVQLVESGGGLVQAGGSLRLSCAASGFTFDYYAMGWYRQAPGKERELVAAITSDGSTYYADSVKGRFTISRDNAKNTVYLQMNSLKPEDTAVYYCAADGISLYATAYDYWGQGTQVTVSS", "polyreactivity (PSR sort gate)": "low polyreactivity"}, {"sequence": "QVQLVESGGGLVQAGGSLRLSCAASGRTFKSYALGWYRQAPGKERELVATITRDGRTNYADSVKGRFTISRDNAKNTVYLQMNSLKPEDTAVYYCNADSRYRYDYWGQGTQVTVSS", "polyreactivity (PSR sort gate)": "low polyreactivity"}, {"sequence": "QVQLVESGGGLVQAGGSLRLSCAASGFTIRYYTMGWYRQAPGKERELVAAITWSGGRTYYADSVKGRFTISRDNAKNTVYLQMNSLKPDETAVYYCAADVTKRASRDYYWGQGTQVTVSS", "polyreactivity (PSR sort gate)": "high polyreactivity"}, {"sequence": "QVQLVESWGGLVQAGGSLRLSCAASGINFWVYAMGWYRQAPGQERELVAAISRRGGSTSYADSVKGRFTISRDNAKNTVYLQMKSLKPEDTAVYFCAATTYTHPYGYWGQGTQVTVSS", "polyreactivity (PSR sort gate)": "high polyreactivity"}, {"sequence": "QVQLVESGGGLVQAGGSLPLSCAASGRTFPFNALGWYRQAPGKEREFVAAISVGGGSTYADSVKGRFTISRDNAKNTFYLQMNSLKPEDTAVYYCAAAYTKLYYYWGQGTQVTVSS", "polyreactivity (PSR sort gate)": "low polyreactivity"}, {"sequence": "QVQLVESGGGLVQAGGSLRLSCPASGSIFYYYAMGWYRQEPGKERELVATITWNGAGTFYADSVKGRFTISRDNAKNTVYLQMNSLKPEDTAVYYCAASWYGESGYDYWGQGSQVTVSS", "polyreactivity (PSR sort gate)": "low polyreactivity"}, {"sequence": "QVQLVETGGGLVQAGCSLRLSCASSGFIFVRNAMGRYRQAPGIERELVATINSGGGTNYADSVKWRFTISRDNAKNSVYFQMNSLKPDDTAVYYCAAGQTSPERYGLGYWGQGSQVTVSS", "polyreactivity (PSR sort gate)": "low polyreactivity"}, {"sequence": "QVQLVESGGGLVQAGGSLRLSCAASGFIFGIYAMGWYRQAPGKERELVAAISWRGDSTYYADSVKGRFTISRDNAKNTVYLQMNSLKPEDTAVYYCAAVYYKLVGWYSYRYGYWGQGTQVTVSS", "polyreactivity (PSR sort gate)": "low polyreactivity"}, {"sequence": "QVQLVESGGGLVQAGGSLRLSCAAYGYTFGYYTMGWYRQAPWKERQLVASIDSGGGTNYADSVKGRFTISRDNAKNTVYLQMNSLKPEDTAVYYCAAESPLYWVDDFESGWRYYYWGQGTQVTVSS", "polyreactivity (PSR sort gate)": "low polyreactivity"}, {"sequence": "QVQLVESGGGLVQAGGSLRLSCAASGSTFVKNVMGWYRQAPGKERELVAGITRGGSTYYADSVKGRFTISRDNAKNTGSLQMNSLKPEDTAVYYCANRYAWDRDYWGQGTQVTVSS", "polyreactivity (PSR sort gate)": "high polyreactivity"}, {"sequence": "QVQLVESGGGLVQAGGSLRLICAASGSIFYRYAMGWYRQAPGKERELVAAISSNGVSTYYADSVKGRFTISRDNAKNTVYLQMNSLKPEDTAVYYCARDVYASPRLYTSRYNYWGQGTQVTVSS", "polyreactivity (PSR sort gate)": "low polyreactivity"}, {"sequence": "QVQLVESGGGLVQAGGSLRLSCAASGSNFDNAKGWYRQAPGKERELVAAITSGGITNYADSVKGRFTNSRDNAKKTVYLQMNSQKPEDTAVYYCNTMSPTQTKYDYWGQGTQVTVSS", "polyreactivity (PSR sort gate)": "low polyreactivity"}, {"sequence": "QVQLVESGGGLVQAGGSLRLSCAASGSTFPLYAMGWYRQAPGKERELVAAITGGGGRTYYADSVKGRFTISRDNAKNTVYLQMNSLKPEETAVYYCAASKQRYYRWWTTPGYDYWGQGTQVTVSS", "polyreactivity (PSR sort gate)": "low polyreactivity"}, {"sequence": "QDQLVESGGGLVQAGGSLPLSCAASGFTYSSYAMGWYRHAPGKERELVATISRSGSTTYYADSVKGRFTISRDNAKNTVYFQMNSLKPEDTAVYYCAKAYYPGGYWGQGTQVTVSS", "polyreactivity (PSR sort gate)": "high polyreactivity"}, {"sequence": "QVQLVESGGVLVQAGGSLRLSCAASGRTFYYYAMGWYRQAPGKEREFVAVISGSGANTFYADSVKGRFTISRDNAKNTVYLQMNSLKPEDTAVYYCAARSWEGYGYWGQGTQVTVSS", "polyreactivity (PSR sort gate)": "high polyreactivity"}, {"sequence": "QVQLVESGGGLVQAGGSLRLSCAASGRIFLSYAMGWYRQAPGNEREFVAAITSSGGSTSYADSVKGRFTISRDNAKNTVYLQMNSLKPEDTAVYYCNDRAYIFGQMKYDYWGQGTQVTVSS", "polyreactivity (PSR sort gate)": "low polyreactivity"}, {"sequence": "QVQHGESGGGLVQAGGSLRLTCAASGSIFKYNAMGWYRQAPGKERELDAAISLSGASRSYADSVKGRFTISRVNAKNTVYLQMNSLKPEDTAVYYCNAYYWYYSTRKYYYWGQGTQETVSS", "polyreactivity (PSR sort gate)": "high polyreactivity"}, {"sequence": "QVQLVESGGGLFQAGGSLRLSCAASGSTFFGYAMGWYRQAPGKERELVAAISSRGGTTNYADSVKGRFTISRDNAKNTVYLQMNSLKPEDNAVYYCNAKDTQEYNRVKYNYWGQGTQVTVSS", "polyreactivity (PSR sort gate)": "high polyreactivity"}, {"sequence": "QVQLVESGGGLFQAGGSLRLSCAASGTFYIYAMGWYRQAPGKERELVAGISFSGGSTYYADSVKGRFTISRDNAKNTVYLQMNSLKPEDTAVYYCAAELYVLPYDYWGQGTQVTVSS", "polyreactivity (PSR sort gate)": "high polyreactivity"}, {"sequence": "QVQLVESGGGLVQAGGSLRLSCAASGSIFYSYAMGWYRQAPGKERELVAVITRGGSTNYADSVKGRFTISRDNAKNTVYLQMNSLKPEDTAVYYCNKDRYGKVFRYPPYYRSSPYDYWGQGTQVTVSS", "polyreactivity (PSR sort gate)": "high polyreactivity"}, {"sequence": "QVQHVESGGGLVQAGGSLRLSCAASESILNRYVMGWYRQATGKERELVCTYYADSVKVRFTISRDNAKNTVYLQMNSLKPEDTAVYYCAADVYLYYAGSRYYYWGQGTQVTVSS", "polyreactivity (PSR sort gate)": "low polyreactivity"}, {"sequence": "QVQLVDSGGGLVQAGGSLRLSCAASGRTFYPYVMGWYRQPPGKERELVADISWSGGRTYYADSVKGRFTISRDNAKNTVYLQMNSLKPEDTAVYYCAAGYRRRYNYWGQGTQVTVSS", "polyreactivity (PSR sort gate)": "high polyreactivity"}, {"sequence": "QVQLVESGGGLVQAGGSLRLSCAASGSTLGYYAMGWYRQAPGKERELVAAISWRTDSTYYADSVKGRFTISRDNAKNTVYLQMNSLKPEDTAVYYCAAQGAYDTYYAQTYGYWGQGTQVTVSS", "polyreactivity (PSR sort gate)": "low polyreactivity"}, {"sequence": "QDQLLESGGGVFQAGGSLRLSCAASGVIFGSYALGWYRPAPGKERELVADITQSGGRTRYADSVKGRFTISRDNAKNTVYLQMNSLKPEDSAVYYCNAQDVDSGDDYDYWGQGTQVTLSS", "polyreactivity (PSR sort gate)": "low polyreactivity"}, {"sequence": "QVQLVESGGGLVQAGGSLRLSCAASGFIVDTYAMGWYRQAPGKERELVAVISSSGGRTYYADSVKGRFTISRDNAKNTVYFQMNSLKPEDTAVYYCAARWYSGYGRFDYWGQGTQVTVSS", "polyreactivity (PSR sort gate)": "high polyreactivity"}, {"sequence": "QVQLVESGGGLVQAGCSLRLSCAASGSTFRYYPMGWYRQAPGKEREFVAAITWRDGSTYYADSVKGRFTISRDNAKNTVYLQMNSLKPEDTAVYYCAARNSHVGYYDEYYYWGQGTQVTVSS", "polyreactivity (PSR sort gate)": "low polyreactivity"}, {"sequence": "QVQLVESGGGLVQAGGSLRLSCADSGFTFSWYTMGWYRQAPGKERELVAALTVSGGSTYYADSVKGRFTISRDNAKNTVYLQMNSLKPEDTAVYYCNAQDPFTYYSSSPTYDYWGQGTQVTVSS", "polyreactivity (PSR sort gate)": "low polyreactivity"}, {"sequence": "QVQLIESGGGLVQAGGSLRLSCAASGLTFYSYAMGWYRQAPGKEREFVAVINWSGGRTYYADSVKGRFTISRDTAKNTVFLQMNSLKPEDTAVYYCAAVRYFASSRRYDYLGQGTQVTVSS", "polyreactivity (PSR sort gate)": "high polyreactivity"}, {"sequence": "QLQRVESGGGLVQAGGSLRLSCAASGITYRYYVMGWYRQAPGKETQLVAAITSGVSTYYADSVKGRFTISRDNAKNTVYLELNSLKPEDTAVDYCAADEPWTYYLYGKMYYWGQGTQVTVSS", "polyreactivity (PSR sort gate)": "high polyreactivity"}, {"sequence": "QVQLVESGGGLVQAGGSLRLSSAASGLTYSVYAMGWYRQAPGKERELVAAISGSGGSTYYADSVKGRFTISRDNAKNTVYLQMNSLKPEDTAVYYCAARYDVHYDGMDYWGLGTQVTVSS", "polyreactivity (PSR sort gate)": "low polyreactivity"}, {"sequence": "QVQLVESGGGLVQAGGSLRLSCAASGSIFWLYTMGWYRQAPGKERELVATITQSGSTYYADSVKGRFTISRDNAKNTVYLQMNSLKPEDTAVYYCAARVVWGPESDYWGQGTQVTVSS", "polyreactivity (PSR sort gate)": "low polyreactivity"}, {"sequence": "QVQLVETGGGLVQAGGSLRLSCAGSGHIFPTNARGWYRQSPWKARELVAVISESVGSTYYADSVKGRFTISRDNSKNTVYLQMNSLKPEDTAVYYCAKQSLYPSLDADYDYWGQGTQVNVSS", "polyreactivity (PSR sort gate)": "low polyreactivity"}, {"sequence": "QVQLVESGGGLVQAGGSLRFSCAASGSTFPYYAMGLYRQAPGKERELVATITKRGGRTYYADSVKGRFTISRDNAKNTVYLQMISLKPEDTAVYYCAARYRFAVTYEYWGQGTQVTVSS", "polyreactivity (PSR sort gate)": "high polyreactivity"}, {"sequence": "QVQLVESGGGLVQAGGSLRLSCAASGGISLYYVMGWYRQAPGKERELVADISADDSTNYADSVKGRFTISRDNAKNTVYLQMNSLKPEDTAVYYCAAVPGLFYLPYDYWGQGTQVTVSS", "polyreactivity (PSR sort gate)": "low polyreactivity"}, {"sequence": "QVQLVESGGGLVQAGGSLRLSCAASGNTFTWYTIGWYRQAPGKERELVAVSTSDGSTYYADSVKGRFTISRDNAKHTVYLQMNSLKPEDTAVYYCTAGGGTNYGSGYWYGYYYWGQGTQVTVSS", "polyreactivity (PSR sort gate)": "low polyreactivity"}]}]}
